Experimental data: PMC3626623, “Homo-dimerization and ligand binding by the leucine-rich repeat domain at RHG1/RFS2 underlying resistance to two soybean pathogens” (BMC Plant Biology, 2013)
No end group written: not given here.

B1: CLE peptide 30 (peptide)
peptide: RLAPEGPDPHHN
modifications: not fully specified (N-terminus); also: labeled with FITC
B2: CLE peptide T (peptide)
peptide: AHEVPSGPNPISNR
modifications: not fully specified (N-terminus); also: labeled with FITC
B3: CLE peptide 2 (peptide)
peptide: RLAPGGPDPQHN
modifications: not fully specified (N-terminus); also: labeled with FITC
B4: CLE peptide N (peptide)
peptide: KRLSPSGPDPHHH
modifications: not fully specified (N-terminus); also: labeled with FITC
B5: CLE peptide 36L (peptide)
peptide: RAELDFNYMSKRRVPNGPDPIHNRRAGNSGR
modifications: not fully specified (N-terminus); also: labeled with FITC
B6: CLE peptide 3 (peptide)
peptide: RTVPSGPDPLHH
modifications: not fully specified (N-terminus); also: labeled with FITC
B7: CLE peptide 2L (peptide)
peptide: DLPLAPADRLAGGPDPQHNVRAPPRKP
modifications: not fully specified (N-terminus); also: labeled with FITC
B8: CLE peptide 36 (peptide)
peptide: SKRRVPNGPDPIHNR
modifications: not fully specified (N-terminus); also: labeled with FITC
B9: CLE peptide 3L (peptide)
peptide: KGLGLHEEELRTVPSGPDPLHHHVNPPRQPR
modifications: not fully specified (N-terminus); also: labeled with FITC
B10: LRR peptide L of GmRLK18-1 (peptide)
peptide: CTLSRLKTLDISNNALNGNLPATLSNLS
modifications: not fully specified (N-terminus); also: labeled with FITC

test system: GmRLK18-1 LRR domain; test: Far Western analysis of total root proteins probed with the LRR domain; type: binding, Glycine max; conditions: 2 D gels of total root proteins of SCN inoculated plants, identified by MS/MS; cyclophilin at 10 dai, methionine synthase at 28 dai
Source text: For Far-Westerns the LRR domain was used as a probe to filters transferred from 1 or 2 D gels. As the secondary probe, anti-his antibody conjugated to HRP (1–10,000 dilution; Invitrogen, Carlsbad CA) was used. Spots and bands were picked manually and the proteins in them digested with trypsin and identified by direct infusion MS/MS following the methods in [31].

With “cyclophilin: soybean root cyclophilin, 182 amino acids, matches gi 17981611, 19,392 d, pI 8.38” the “binding to the LRR domain in Far Western (in words)” value was “avidly bound to the LRR”.

target: GmRLK18-1 LRR domain expressed in E. coli (soybean (Glycine max)); test: native gel or EMSA; 12% (w/v) non-denatured PAGE of purified, refolded GmRLK18-1-LRR from E. coli; bands eluted and run again on SDS-PAGE; conditions: not given

“GmRLK18-1 LRR domain expressed in E. coli (domain or fragment)” showed a stoichiometry N of 2.

target: GmRLK08-1 LRR domain expressed in E. coli (soybean (Glycine max)); test: fluorescence polarisation; FITC-labelled peptides in 20 mM phosphate buffer pH 6.9 in a cuvette, 5 nM aliquots, increase in polarisation; baseline of non-CLE and non-LRR peptides subtracted; Kd from double reciprocal Scatchard plots; 3 repeats with 3 protein preparations; apparent for peptide L; conditions: not given

First: B1
Second: B2
The Kd of the first is 2.4-fold lower: 84 nM for the first, 204 nM for the second. The first binds more tightly here.

B3 and B4 are within 1.5-fold of each other in Kd: 96 nM for the first, 78 nM for the second.

B5 and B6 are within 1.5-fold of each other in Kd: 51 nM for the first, 50 nM for the second.

Compared with B7, B8 is 6.5-fold lower in Kd: 338 nM for the first, 52 nM for the second. The second binds more tightly here.

B9 and B10 are within 1.5-fold of each other in Kd: 142 nM for the first, 135 nM for the second.

target: GmRLK18-1 LRR domain expressed in E. coli (soybean (Glycine max)); test: as above; conditions: not given

Going from B1 to B2, the Kd falls from 44 nM to 20 nM (2.2-fold).

Going from B3 to B4, the Kd falls from 45 nM to 30 nM (1.5-fold).

Going from B5 to B6, the Kd falls from 49 nM to 29 nM (1.7-fold). The second binds more tightly here.

Going from B7 to B8, the Kd falls from 142 nM to 14 nM (10-fold). The second binds more tightly here.

Going from B9 to B10, the Kd falls from 65 nM to 36 nM (1.8-fold).
